According to patent publication US20210340276A1 (Astellas, published 2021):

B1: P10-1 Fab (Fab, V domains shown)
VH: QVQLVQSGAEVKKPGASVKVSCKASGYTFTNYGLSWVRQAPGQGLEWMGENHPGSGIIYHNEKFRGRVTLTADRSTSTAYMELSSLRSEDTAVYYCARSSGTRGFAYWGQGTLVTVSS
VL: DVVMTQTPLSLSVTPGQPASISCRSSQSIVHSNGNTYLEWYLQKPGQSPQLLIYRVSNRFSGVPDRFSGSGSGTDFTLKISRVEAEDVGVYYCFQGSHGPWTFGQGTKLEIKR
notes: expressed in Expi293F cells, purified with KappaSelect; also called anti-human MUC1 antibody Fab fragment P10-1
B2: P10-2 Fab (Fab, V domains shown)
VH: QVQLVQSGAEVKKPGASVKVSCKASGYTFTNYGLSWVRQAPGQGLEWMGENHPGSGIIYHNEKFRGRVTLTADRSTSTAYMELSSLRSEDTAVYYCARSSGTRGFDYWGQGTLVTVSS
VL: DVVMTQTPLSLSVTPGQPASISCRSSQSIVHSNGNTYLEWYLQKPGQSPQLLIYRVSNRFSGVPDRFSGSGSGTDFTLKISRVEAEDVGVYYCFQGSHGPWTFGQGTKLEIKR
modifications: heavy chain N-terminal glutamine modified into pyroglutamic acid in a great majority of purified antibodies (Example 2)
notes: expressed in Expi293F cells, purified with KappaSelect; also called anti-human MUC1 antibody Fab fragment P10-2

Molecular target: T1, human cancer-specific MUC1 (on breast cancer cell line T-47D cells) (human, UniProt P15941 24-1255, cancer-specific incomplete O-glycosylation (T, Tn, 2,3ST) of the tandem repeat, as described in the background)
T1 construct: whole, on cells; cells fixed in formalin; also called Mucin 1
Experiment: Cell ELISA on formalin-fixed T-47D cells, HRP anti-human Igκ detection, luminescence; reference 1B2 Fab
Protocol: Specifically, breast cancer cell line T-47D cells (purchasable from ATCC; HTB-133) expressing human cancer-specific MUC1 were inoculated at 0.75×10⁴ cells per well to a 96-well ELISA plate coated with collagen I, and cultured overnight. […] Then, a horseradish peroxidase (HRP)-labeled goat anti-human Igκ antibody (Southern Biotechnology Associates, Inc.) was reacted as a secondary antibody. ECL Prime Western Blotting Detection Reagent (GE Healthcare Japan Corp.) was added thereto for luminescence, and the degree of the luminescence was examined.

Row | Binder | fold binding activity compared to 1B2 Fab [times]
1 | B1 | ≥ 10
2 | B2 | ≥ 10
